Measured values taken from article PMC3119050, “High-Resolution X-Ray Structure of the Trimeric Scar/WAVE-Complex Precursor Brk1” (PLoS ONE, 2011).
Numbering of substitutions follows the chain as printed. Names may count otherwise. Values belong to the binder of their own block, whether it stands above or below them.

Experiments:
[1] = target: the molecule itself; test: AUC; sedimentation equilibrium, 43 µM and 171 µM DdBrk1, PBS, 10°C, 18,000 and 26,000 rpm, absorbance at 280 nm, global fit with a single species
[2] = target: the molecule itself; test: AUC; sedimentation velocity with fluorescence detection, 8 to 800 nM DdBrk1_488, PBS, 20°C, 50,000 rpm; trimer to monomers
[3] = target: T1, Scar(1-225)/AbiA(1-149)/DdBrk1-complex (Dictyostelium discoideum, UniProt Q54NF8 1-225; Q55FT9 1-149; Q54X65 1-68); test: SEC; 100 nM DdBrk1_488 incubated with the unlabelled complex (1.4 µM MBP-DdBrk1) for two hours on ice; Superdex-S200 10/300, PBS, 4°C, absorbance at 488 nm and 280 nm; conditions: both partners purified
T1 construct: AbiA (Abi) of Dictyostelium discoideum, residues 1-149, untagged; remnant after PreScission cleavage; Brk1 of Dictyostelium discoideum, 68 residues; In the exchange experiment the unlabelled DdBrk1 chain of this complex is replaced by DdBrk1_488; also called Scar/AbiA/DdBrk1 subcomplex; source: E. coli BL21 DE3, coexpressed, purified (glutathione sepharose, PreScission cleavage, Superdex-S75); …
T1 sequence 1: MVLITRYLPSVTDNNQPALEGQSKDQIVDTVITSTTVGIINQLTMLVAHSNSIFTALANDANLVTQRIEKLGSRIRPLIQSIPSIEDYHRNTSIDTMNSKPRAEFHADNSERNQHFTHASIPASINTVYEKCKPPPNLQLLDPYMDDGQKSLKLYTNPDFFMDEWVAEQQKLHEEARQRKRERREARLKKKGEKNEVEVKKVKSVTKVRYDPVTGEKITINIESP
T1 sequence 2: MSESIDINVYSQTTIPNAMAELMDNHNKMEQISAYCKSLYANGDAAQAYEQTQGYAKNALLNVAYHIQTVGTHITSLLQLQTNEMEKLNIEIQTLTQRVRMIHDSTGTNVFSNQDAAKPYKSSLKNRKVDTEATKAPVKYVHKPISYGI
T1 sequence 3: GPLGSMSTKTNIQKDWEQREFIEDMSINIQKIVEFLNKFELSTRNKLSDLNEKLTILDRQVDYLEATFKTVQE

B1: Dictyostelium discoideum Brk1 (DdBrk1), GST tag removed (natural protein)
chain: T1 sequence 3
notes: extra amino acids left at the N-terminus after PreScission cleavage of the GST tag; Brk1 (HSPC300 ortholog) of Dictyostelium discoideum, 68 residues; Calculated molar mass 8.61 kg/mol per chain; homotrimer by sedimentation equilibrium; also called DdHSPC300; HSPC300; source: E. coli BL21 DE3, purified (glutathione sepharose, PreScission cleavage, Mono Q, Superdex-S75); not shown: GST, N-terminal, …
- stoichiometry N [1]: 3

- binding result [3]: binds
B2: DdBrk1_488 (DdBrk1 mutant M1C labelled with Alexa 488) (natural protein, Dictyostelium discoideum)
chain: T1 sequence 3 with M6C
modifications: Alexa 488 (Alexa-488 Fluor C5 maleimide) on the cysteine that replaces methionine 1
notes: extra amino acids left at the N-terminus after PreScission cleavage of the GST tag; Brk1 of Dictyostelium discoideum, 68 residues, first methionine replaced by cysteine; Trimer at the highest concentrations examined; dissociates in the lower nanomolar range; also called DdBrk1 M1C; DdBrk1_M1C; not shown: GST, N-terminal, cleaved
- stoichiometry N [2]: 3
